Assay results taken from publication PMC3046049 (Science (New York, N.Y.), 2010).

T1: PLC-β3 truncated at residue 886 (UniProt Q01970 1-886)
T1 sequence (looked up): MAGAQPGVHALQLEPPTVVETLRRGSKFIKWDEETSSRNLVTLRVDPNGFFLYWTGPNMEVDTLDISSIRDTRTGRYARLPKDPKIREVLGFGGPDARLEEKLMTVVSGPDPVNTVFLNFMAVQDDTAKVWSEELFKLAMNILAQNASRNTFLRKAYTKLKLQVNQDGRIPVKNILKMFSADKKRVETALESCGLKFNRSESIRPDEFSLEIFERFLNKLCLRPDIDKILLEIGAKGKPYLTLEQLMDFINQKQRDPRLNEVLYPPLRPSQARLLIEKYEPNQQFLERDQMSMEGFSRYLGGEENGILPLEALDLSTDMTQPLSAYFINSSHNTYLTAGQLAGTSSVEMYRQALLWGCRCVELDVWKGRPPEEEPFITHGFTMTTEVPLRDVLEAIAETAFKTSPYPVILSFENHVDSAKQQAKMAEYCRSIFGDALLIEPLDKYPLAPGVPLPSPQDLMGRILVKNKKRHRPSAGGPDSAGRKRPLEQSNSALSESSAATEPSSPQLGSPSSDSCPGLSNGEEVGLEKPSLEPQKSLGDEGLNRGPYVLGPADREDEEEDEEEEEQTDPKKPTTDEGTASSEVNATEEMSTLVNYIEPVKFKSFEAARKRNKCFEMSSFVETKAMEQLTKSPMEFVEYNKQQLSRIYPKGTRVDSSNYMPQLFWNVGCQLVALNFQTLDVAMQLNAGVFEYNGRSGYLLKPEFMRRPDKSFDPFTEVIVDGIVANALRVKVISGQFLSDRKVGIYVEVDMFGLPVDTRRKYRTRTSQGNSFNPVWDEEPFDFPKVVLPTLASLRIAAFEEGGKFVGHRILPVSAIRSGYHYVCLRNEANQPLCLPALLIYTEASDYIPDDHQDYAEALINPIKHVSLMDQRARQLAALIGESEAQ

B1: Gαq (natural protein)
chain: RRELKLLLLGTGESGKSTFIKQMRIIHGSGYSDEDKRGFTKLVYQNIFTAMQAMIRAMDTLKIPYKYEHNKAHAQLVREVDVEKVSAFENPYVDAIKSLWNDPGIQECYDRRREYQLSDSTKYYLNDLDRVADPSYLPTQQDVLRVRVPTTGIIEYPFDLQSVIFRMVDVGGQRSERRKWIHCFENVTSIMFLVALSEYDQVLVESDNENRMEESKALFRTIITYPWFQNSSVILFLNKKDLLEEKIMYSHLVDYFPEYDGPQRDAQAAREFILKMFVDLNPDSDKIIYSHFTCATDTENIRFVFAAVKDTILQLNLKEYNLV

Experiments:
Gαq = molecular target: B1
[1] = molecular target: T1, PLC-β3 truncated at residue 886

fold lower binding affinity than PLC-β3 (Gαq) [fold] | Kd [1] [µM] | Binder
7 |  | PLC-β3(L859A) (enzyme, UniProt Q01970 1-1234, looked up) MAGAQPGVHALQLEPPTVVETLRRGSKFIKWDEETSSRNLVTLRVDPNGFFLYWTGPNMEVDTLDISSIRDTRTGRYARLPKDPKIREVLGFGGPDARLEEKLMTVVSGPDPVNTVFLNFMAVQDDTAKVWSEELFKLAMNILAQNASRNTFLRKAYTKLKLQVNQDGRIPVKNILKMFSADKKRVETALESCGLKFNRSESIRPDEFSLEIFERFLNKLCLRPDIDKILLEIGAKGKPYLTLEQLMDFINQKQRDPRLNEVLYPPLRPSQARLLIEKYEPNQQFLERDQMSMEGFSRYLGGEENGILPLEALDLSTDMTQPLSAYFINSSHNTYLTAGQLAGTSSVEMYRQALLWGCRCVELDVWKGRPPEEEPFITHGFTMTTEVPLRDVLEAIAETAFKTSPYPVILSFENHVDSAKQQAKMAEYCRSIFGDALLIEPLDKYPLAPGVPLPSPQDLMGRILVKNKKRHRPSAGGPDSAGRKRPLEQSNSALSESSAATEPSSPQLGSPSSDSCPGLSNGEEVGLEKPSLEPQKSLGDEGLNRGPYVLGPADREDEEEDEEEEEQTDPKKPTTDEGTASSEVNATEEMSTLVNYIEPVKFKSFEAARKRNKCFEMSSFVETKAMEQLTKSPMEFVEYNKQQLSRIYPKGTRVDSSNYMPQLFWNVGCQLVALNFQTLDVAMQLNAGVFEYNGRSGYLLKPEFMRRPDKSFDPFTEVIVDGIVANALRVKVISGQFLSDRKVGIYVEVDMFGLPVDTRRKYRTRTSQGNSFNPVWDEEPFDFPKVVLPTLASLRIAAFEEGGKFVGHRILPVSAIRSGYHYVCLRNEANQPLCLPALLIYTEASDYIPDDHQDYAEAAINPIKHVSLMDQRARQLAALIGESEAQAGQETCQDTQSQQLGSQPSSNPTPSPLDASPRRPPGPTTSPASTSLSSPGQRDDLIASILSEVAPTPLDELRGHKALVKLRSRQERDLRELRKKHQRKAVTLTRRLLDGLAQAQAEGRCRLRPGALGGAADVEDTKEGEDEAKRYQEFQNRQVQSLLELREAQVDAEAQRRLEHLRQALQRLREVVLDANTTQFKRLKEMNEREKKELQKILDRKRHNSISEAKMRDKHKKEAELTEINRRHITESVNSIRRLEEAQKQRHDRLVAGQQQVLQQLAEEEPKLLAQLAQECQEQRARLPQEIRRSLLGEMPEGLGDGPLVACASNGHAPGSSGHLSGADSESQEENTQL
 | ~0.2 | B1
